Each block holds one compound with its values, some of them ahead of it. Square brackets hold non-standard residues; d marks the D form. Peptide text beside a SMILES is read from it. Nle = CCCC[C@H](N)C(=O)O
Tests used:
Apo-2L [1] = target: T1, Apo-2L (Homo sapiens, UniProt P50591); test: Co-precipitation (immunoprecipitation) assay of Apo-2 ECD-Flag with His-tagged Apo-2L; assay type: binding; settings: 293 cell supernatant with Apo-2 ECD-Flag, 5 μg poly-histidine-tagged soluble Apo-2L; FIG. 3
T1 construct: poly-histidine; made in house
Protocol: The samples were subjected to immunoprecipitation using 25 μl anti-Flag conjugated agarose beads (Sigma) or Nickel-conjugated agarose beads (Qiagen). After a 1.5 hour incubation at 4° C., the beads were spun down and washed four times in phosphate buffered saline (PBS). […] The precipitated proteins were released by boiling the beads for 5 minutes in SDS-PAGE buffer, resolved by electrophoresis on 12% polyacrylamide gels, and then detected by immunoblot with anti-Apo-2L or anti-Flag antibody (2 μg/ml) as described in Marsters et al., J. Biol. Chem., (1997).
Target sequence in this assay (P50591 39-281 limits assumed): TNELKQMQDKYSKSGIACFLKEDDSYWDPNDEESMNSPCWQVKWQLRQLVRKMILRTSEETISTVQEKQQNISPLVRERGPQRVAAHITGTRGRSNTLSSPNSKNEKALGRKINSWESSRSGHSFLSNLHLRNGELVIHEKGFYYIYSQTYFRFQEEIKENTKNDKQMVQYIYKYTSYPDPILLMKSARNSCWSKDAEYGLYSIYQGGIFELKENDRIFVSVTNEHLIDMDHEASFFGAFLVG

Fas/Apo-1 ligand = target: T2, Fas/Apo-1 ligand (Homo sapiens, UniProt P48023); test: BIACORE analysis of purified Apo-2 ECD; assay type: binding
T2 construct: purchased Alexis Biochemicals
T2 sequence (P48023 103-281 limits assumed): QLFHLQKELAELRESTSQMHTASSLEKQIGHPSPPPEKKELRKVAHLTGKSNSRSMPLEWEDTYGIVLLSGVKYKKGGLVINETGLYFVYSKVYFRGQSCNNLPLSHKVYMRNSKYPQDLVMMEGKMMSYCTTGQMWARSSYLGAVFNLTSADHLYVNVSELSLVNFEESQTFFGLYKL
From the text: (§1) The binding interaction was further analyzed by purifying Apo-2 ECD from the transfected 293 cell supernatants with anti-Flag beads (see Example 2) and then analyzing the samples on a BIACORE™ instrument.

TNF-alpha = TNF-alpha (Homo sapiens, UniProt P01375); test: BIACORE analysis of purified Apo-2 ECD; assay type: binding
From the text: as §1

lymphotoxin-alpha = target: T3, lymphotoxin-alpha (Homo sapiens, UniProt P01374); test: BIACORE analysis of purified Apo-2 ECD; assay type: binding
T3 sequence (P01374 35-205): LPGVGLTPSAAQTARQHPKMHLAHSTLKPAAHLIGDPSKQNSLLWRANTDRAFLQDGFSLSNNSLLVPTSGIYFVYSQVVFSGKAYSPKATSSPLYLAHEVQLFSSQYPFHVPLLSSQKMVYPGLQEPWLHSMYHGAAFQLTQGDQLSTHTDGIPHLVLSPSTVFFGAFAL
From the text: as §1

Apo-2L [2] = target: T1, Apo-2L; test: Inhibition of Apo-2L activity by soluble Apo-2 ECD, apoptosis by FACS; assay type: cell-based; settings: Apo-2L 0.5 μg/ml pre-incubated 1 hour; Apo-2 ECD 5 μg/ml with anti-Flag antibody 1 μg/ml; FIG. 4D
Protocol: After a 5 hour incubation, the cells were analyzed for apoptosis by FACS (as above) (FIG. 4D).
Target sequence in this assay (P50591 114-281 limits assumed): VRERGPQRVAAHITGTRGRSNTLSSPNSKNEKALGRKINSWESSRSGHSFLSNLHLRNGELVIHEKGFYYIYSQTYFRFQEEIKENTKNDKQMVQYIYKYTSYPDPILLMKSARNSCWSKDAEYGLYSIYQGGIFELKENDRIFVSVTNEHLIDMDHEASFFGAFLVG

[3] = tested on: HeLa cells transfected with Apo-2; assay type: cell-based, human
HeLa cells = assay type: cell-based, human; settings: 5 hour

Sequence of TNF-alpha (P01375 77-233 limits assumed): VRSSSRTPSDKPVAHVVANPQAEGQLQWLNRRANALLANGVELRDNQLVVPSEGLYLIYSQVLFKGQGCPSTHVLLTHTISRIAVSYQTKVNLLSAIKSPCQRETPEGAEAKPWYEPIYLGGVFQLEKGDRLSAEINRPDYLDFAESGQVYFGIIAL

complex formation with Apo-2L by co-precipitation (Apo-2L [1]): can associate with each other | binding to Fas/Apo-1 ligand (Fas/Apo-1 ligand): not capable of binding | binding to TNF-alpha (TNF-alpha): not capable of binding | blocking of Apo-2L action (apoptosis in HeLa cells) (Apo-2L [2]): capable of blocking Apo-2L action
Compound: Apo-2 ECD: Soluble Apo-2 extracellular domain (amino acid residues 1-184 of FIG. 1) fused to a C-terminal Flag epitope tag
binding to lymphotoxin-alpha (lymphotoxin-alpha): not capable of binding

Compound: DEVD-fmk
effect on apoptosis induction by Apo-2 [3]: blocked apoptosis induction by Apo-2

Compound: z-VAD-fmk
effect on apoptosis induction by Apo-2 [3]: blocked apoptosis induction by Apo-2

Compound: CCCC[C@@H](C=O)NC(=O)[C@H](CC(C)C)NC(=O)[C@H](CC(C)C)NC(C)=O [ALLN, N-acetyl-Leu-Leu-norleucinal] (Ac-Leu-Leu-[Nle]-aldehyde)
effect on level of Apo-2L-induced apoptosis (HeLa cells): increased the level of Apo-2L-induced apoptosis

Compound: cyclohexamide
effect on level of Apo-2L-induced apoptosis (HeLa cells): increased the level of Apo-2L-induced apoptosis
